B1: W385A: HAB1 mutant (protein, UniProt Q9CAJ0 23-511, looked up, variant W385A)
Protein phosphatase 2C 16: SPVEITQLKNVTDAADLLSDSENQSFCNGGTECTMEDVSELEEVGEQDLLKTLSDTRSGSSNVFDEDDVLSVVEDNSAVISEGLLVVDAGSELSLSNTAMEIDNGRVLATAIIVGESSIEQVPTAEVLIAGVNQDTNTSEVVIRLPDENSNHLVKGRSVYELDCIPLWGTVSIQGNRSEMEDAFAVSPHFLKLPIKMLMGDHEGMSPSLTHLTGHFFGVYDGHGGHKVADYCRDRLHFALAEEIERIKDELCKRNTGEGRQVQWDKVFTSCFLTVDGEIEGKIGRAVVGSSDKVLEAVASETVGSTAVVALVCSSHIVVSNCGDSRAVLFRGKEAMPLSVDHKPDREDEYARIENAGGKVIQAQGARVFGVLAMSRSIGDRYLKPYVIPEPEVTFMPRSREDECLILASDGLWDVMNNQEVCEIARRRILMWHKKNGAPPLAERGKGIDPACQAAADYLSMLALQKGSKDNISIIVIDLKAQRKFKTRT
B2: W385L: HAB1 mutant (protein, UniProt Q9CAJ0 23-511, looked up, variant W385L)
Protein phosphatase 2C 16: SPVEITQLKNVTDAADLLSDSENQSFCNGGTECTMEDVSELEEVGEQDLLKTLSDTRSGSSNVFDEDDVLSVVEDNSAVISEGLLVVDAGSELSLSNTAMEIDNGRVLATAIIVGESSIEQVPTAEVLIAGVNQDTNTSEVVIRLPDENSNHLVKGRSVYELDCIPLWGTVSIQGNRSEMEDAFAVSPHFLKLPIKMLMGDHEGMSPSLTHLTGHFFGVYDGHGGHKVADYCRDRLHFALAEEIERIKDELCKRNTGEGRQVQWDKVFTSCFLTVDGEIEGKIGRAVVGSSDKVLEAVASETVGSTAVVALVCSSHIVVSNCGDSRAVLFRGKEAMPLSVDHKPDREDEYARIENAGGKVIQLQGARVFGVLAMSRSIGDRYLKPYVIPEPEVTFMPRSREDECLILASDGLWDVMNNQEVCEIARRRILMWHKKNGAPPLAERGKGIDPACQAAADYLSMLALQKGSKDNISIIVIDLKAQRKFKTRT
B3: W385M: HAB1 mutant (protein, UniProt Q9CAJ0 23-511, looked up, variant W385M)
Protein phosphatase 2C 16: SPVEITQLKNVTDAADLLSDSENQSFCNGGTECTMEDVSELEEVGEQDLLKTLSDTRSGSSNVFDEDDVLSVVEDNSAVISEGLLVVDAGSELSLSNTAMEIDNGRVLATAIIVGESSIEQVPTAEVLIAGVNQDTNTSEVVIRLPDENSNHLVKGRSVYELDCIPLWGTVSIQGNRSEMEDAFAVSPHFLKLPIKMLMGDHEGMSPSLTHLTGHFFGVYDGHGGHKVADYCRDRLHFALAEEIERIKDELCKRNTGEGRQVQWDKVFTSCFLTVDGEIEGKIGRAVVGSSDKVLEAVASETVGSTAVVALVCSSHIVVSNCGDSRAVLFRGKEAMPLSVDHKPDREDEYARIENAGGKVIQMQGARVFGVLAMSRSIGDRYLKPYVIPEPEVTFMPRSREDECLILASDGLWDVMNNQEVCEIARRRILMWHKKNGAPPLAERGKGIDPACQAAADYLSMLALQKGSKDNISIIVIDLKAQRKFKTRT
B4: W385N: HAB1 mutant (protein, UniProt Q9CAJ0 23-511, looked up, variant W385N)
Protein phosphatase 2C 16: SPVEITQLKNVTDAADLLSDSENQSFCNGGTECTMEDVSELEEVGEQDLLKTLSDTRSGSSNVFDEDDVLSVVEDNSAVISEGLLVVDAGSELSLSNTAMEIDNGRVLATAIIVGESSIEQVPTAEVLIAGVNQDTNTSEVVIRLPDENSNHLVKGRSVYELDCIPLWGTVSIQGNRSEMEDAFAVSPHFLKLPIKMLMGDHEGMSPSLTHLTGHFFGVYDGHGGHKVADYCRDRLHFALAEEIERIKDELCKRNTGEGRQVQWDKVFTSCFLTVDGEIEGKIGRAVVGSSDKVLEAVASETVGSTAVVALVCSSHIVVSNCGDSRAVLFRGKEAMPLSVDHKPDREDEYARIENAGGKVIQNQGARVFGVLAMSRSIGDRYLKPYVIPEPEVTFMPRSREDECLILASDGLWDVMNNQEVCEIARRRILMWHKKNGAPPLAERGKGIDPACQAAADYLSMLALQKGSKDNISIIVIDLKAQRKFKTRT
B5: W385P: HAB1 mutant (protein, UniProt Q9CAJ0 23-511, looked up, variant W385P)
Protein phosphatase 2C 16: SPVEITQLKNVTDAADLLSDSENQSFCNGGTECTMEDVSELEEVGEQDLLKTLSDTRSGSSNVFDEDDVLSVVEDNSAVISEGLLVVDAGSELSLSNTAMEIDNGRVLATAIIVGESSIEQVPTAEVLIAGVNQDTNTSEVVIRLPDENSNHLVKGRSVYELDCIPLWGTVSIQGNRSEMEDAFAVSPHFLKLPIKMLMGDHEGMSPSLTHLTGHFFGVYDGHGGHKVADYCRDRLHFALAEEIERIKDELCKRNTGEGRQVQWDKVFTSCFLTVDGEIEGKIGRAVVGSSDKVLEAVASETVGSTAVVALVCSSHIVVSNCGDSRAVLFRGKEAMPLSVDHKPDREDEYARIENAGGKVIQPQGARVFGVLAMSRSIGDRYLKPYVIPEPEVTFMPRSREDECLILASDGLWDVMNNQEVCEIARRRILMWHKKNGAPPLAERGKGIDPACQAAADYLSMLALQKGSKDNISIIVIDLKAQRKFKTRT
B6: W385Q: HAB1 mutant (protein, UniProt Q9CAJ0 23-511, looked up, variant W385Q)
Protein phosphatase 2C 16: SPVEITQLKNVTDAADLLSDSENQSFCNGGTECTMEDVSELEEVGEQDLLKTLSDTRSGSSNVFDEDDVLSVVEDNSAVISEGLLVVDAGSELSLSNTAMEIDNGRVLATAIIVGESSIEQVPTAEVLIAGVNQDTNTSEVVIRLPDENSNHLVKGRSVYELDCIPLWGTVSIQGNRSEMEDAFAVSPHFLKLPIKMLMGDHEGMSPSLTHLTGHFFGVYDGHGGHKVADYCRDRLHFALAEEIERIKDELCKRNTGEGRQVQWDKVFTSCFLTVDGEIEGKIGRAVVGSSDKVLEAVASETVGSTAVVALVCSSHIVVSNCGDSRAVLFRGKEAMPLSVDHKPDREDEYARIENAGGKVIQQQGARVFGVLAMSRSIGDRYLKPYVIPEPEVTFMPRSREDECLILASDGLWDVMNNQEVCEIARRRILMWHKKNGAPPLAERGKGIDPACQAAADYLSMLALQKGSKDNISIIVIDLKAQRKFKTRT
B7: W385R: HAB1 mutant (protein, UniProt Q9CAJ0 23-511, looked up, variant W385R)
Protein phosphatase 2C 16: SPVEITQLKNVTDAADLLSDSENQSFCNGGTECTMEDVSELEEVGEQDLLKTLSDTRSGSSNVFDEDDVLSVVEDNSAVISEGLLVVDAGSELSLSNTAMEIDNGRVLATAIIVGESSIEQVPTAEVLIAGVNQDTNTSEVVIRLPDENSNHLVKGRSVYELDCIPLWGTVSIQGNRSEMEDAFAVSPHFLKLPIKMLMGDHEGMSPSLTHLTGHFFGVYDGHGGHKVADYCRDRLHFALAEEIERIKDELCKRNTGEGRQVQWDKVFTSCFLTVDGEIEGKIGRAVVGSSDKVLEAVASETVGSTAVVALVCSSHIVVSNCGDSRAVLFRGKEAMPLSVDHKPDREDEYARIENAGGKVIQRQGARVFGVLAMSRSIGDRYLKPYVIPEPEVTFMPRSREDECLILASDGLWDVMNNQEVCEIARRRILMWHKKNGAPPLAERGKGIDPACQAAADYLSMLALQKGSKDNISIIVIDLKAQRKFKTRT
B8: W385S: HAB1 mutant (protein, UniProt Q9CAJ0 23-511, looked up, variant W385S)
Protein phosphatase 2C 16: SPVEITQLKNVTDAADLLSDSENQSFCNGGTECTMEDVSELEEVGEQDLLKTLSDTRSGSSNVFDEDDVLSVVEDNSAVISEGLLVVDAGSELSLSNTAMEIDNGRVLATAIIVGESSIEQVPTAEVLIAGVNQDTNTSEVVIRLPDENSNHLVKGRSVYELDCIPLWGTVSIQGNRSEMEDAFAVSPHFLKLPIKMLMGDHEGMSPSLTHLTGHFFGVYDGHGGHKVADYCRDRLHFALAEEIERIKDELCKRNTGEGRQVQWDKVFTSCFLTVDGEIEGKIGRAVVGSSDKVLEAVASETVGSTAVVALVCSSHIVVSNCGDSRAVLFRGKEAMPLSVDHKPDREDEYARIENAGGKVIQSQGARVFGVLAMSRSIGDRYLKPYVIPEPEVTFMPRSREDECLILASDGLWDVMNNQEVCEIARRRILMWHKKNGAPPLAERGKGIDPACQAAADYLSMLALQKGSKDNISIIVIDLKAQRKFKTRT
B9: W385T: HAB1 mutant (protein, UniProt Q9CAJ0 23-511, looked up, variant W385T)
Protein phosphatase 2C 16: SPVEITQLKNVTDAADLLSDSENQSFCNGGTECTMEDVSELEEVGEQDLLKTLSDTRSGSSNVFDEDDVLSVVEDNSAVISEGLLVVDAGSELSLSNTAMEIDNGRVLATAIIVGESSIEQVPTAEVLIAGVNQDTNTSEVVIRLPDENSNHLVKGRSVYELDCIPLWGTVSIQGNRSEMEDAFAVSPHFLKLPIKMLMGDHEGMSPSLTHLTGHFFGVYDGHGGHKVADYCRDRLHFALAEEIERIKDELCKRNTGEGRQVQWDKVFTSCFLTVDGEIEGKIGRAVVGSSDKVLEAVASETVGSTAVVALVCSSHIVVSNCGDSRAVLFRGKEAMPLSVDHKPDREDEYARIENAGGKVIQTQGARVFGVLAMSRSIGDRYLKPYVIPEPEVTFMPRSREDECLILASDGLWDVMNNQEVCEIARRRILMWHKKNGAPPLAERGKGIDPACQAAADYLSMLALQKGSKDNISIIVIDLKAQRKFKTRT

Target: T1, PYR1 (Arabidopsis thaliana, UniProt O49686)
T1 construct: expressed in transfected cells; host or cells: S. cerevisiae strain Y190
T1 sequence (O49686 1-191): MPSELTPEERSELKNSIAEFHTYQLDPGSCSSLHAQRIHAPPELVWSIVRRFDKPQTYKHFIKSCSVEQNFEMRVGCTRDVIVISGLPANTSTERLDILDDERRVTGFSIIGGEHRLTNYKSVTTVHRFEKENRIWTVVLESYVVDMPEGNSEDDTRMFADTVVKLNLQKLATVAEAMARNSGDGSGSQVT
Experiment: Yeast two hybrid of pACT-HAB1 site saturation mutants with pBD-PYR1 on 10 μM ABA, β-galactosidase staining
Format: cell-based
Design: key: x: Mutations in HAB1 that disrupt HAB1 interaction with PYR1
Details: S. cerevisiae Y190, 10 μM ABA; dead = lack of detectable staining in comparison to wild type control
Source text: To systematically define mutations in HAB1 that disrupt its binding to PYR1, we used site saturation mutagenesis to create a collection all possible single amino acid substitutions in 20 residues lining the PYR1 binding interface, and then assayed the ability of each mutant to bind PYR1 using the yeast two hybrid assay described above. We targeted the following residues for mutagenesis: R199, 5200, E201, E203, H245, G246, G247, S322, E323, T324, K381, I383, Q384, W385, Q386, R389, F391, G392, V393, and Y404. To create the collection of mutations, mutagenic “NNK” site directed mutagenesis primers were synthesized for each of the 20 positions and the primers used in QuickChange site-directed mutagenesis reactions using a previously described pACT-HAB1 template (Park et al., 2009). We note that this clone uses a HAB1 cDNA lacking its three N-terminal amino acids. The reaction products were digested with DpnI, and transformed into competent Escherichia coli DH5α cells and plasmid DNA for 96 colonies per site was isolated using Bioneer AccuPrep® Plasmid Mini Extraction Kit (Alameda, Calif.) and sequenced to identify mutants. This process identified most of the 19 desired mutations per target site; the remaining mutations were constructed directly using specific mutagenic primers. To interrogate the effects of the mutations on PYR1-HAB1 interactions, the mutant clones were individually transformed into S. cerevisiae strain Y190 containing pBD-PYR1 (Park et al., 2009). Yeast transformants were selected for the presence of plasmids on selective SD (-Leu,-Trp) plates and then spotted onto SD (-Leu,-Trp) agar plates supplemented with 10 μM ABA. After incubating the test plates at 30° C. for two days, the colonies were lysed with chloroform and stained to reveal […] expression levels. “Dead” mutants were defined by lack of detectable staining in comparison to a wild type pBD-PYR1/pACT-HAB1 control. This screening effort defined 163 mutations that disrupt the ABA-induced PYR1/HAB1 interaction (Table 2).

Row | Molecule | Mutations in HAB1 that disrupt HAB1 interaction with PYR1
1 | B1 | x
2 | B2 | x
3 | B3 | x
4 | B4 | x
5 | B5 | x
6 | B6 | x
7 | B7 | x
8 | B8 | x
9 | B9 | x
